Experimental findings from paper PMC6345753, “Curcumin inhibits the TGF-β1-dependent differentiation of lung fibroblasts via PPARγ-driven upregulation of cathepsins B and L” are described below.

Settings in all cases: protein: recombinant;recombinant; tags: ;; copies: 1;1; blunt
The target in series [1] is T1, PPARγ;RXRα (human;human, UniProt P37231;P19793 1-505;1-462, |). The series can be described thus: EMSA; positive control; anti-PPARγ supershift; 4 fmol labeled DNA, 3.7 pmol PPARγ, 3.9 pmol RXRα in 20 µl; 20 ng poly(dI.dC), 2.5% glycerol, 0.05% NP-40, 5 mM MgCl2; on ice 20 min; 4% native gel, 1x TBE, 4 °C; pH and salt not given.
The target of series [2] is T1, PPARγ;RXRα. The experiment in a line: EMSA; two shifted complexes; anti-PPARγ supershift; 4 fmol labeled DNA, 3.7 pmol PPARγ, 3.9 pmol RXRα in 20 µl; 20 ng poly(dI.dC), 2.5% glycerol, 0.05% NP-40, 5 mM MgCl2; on ice 20 min; 4% native gel, 1x TBE, 4 °C; pH and salt not given.
In series [3] the target is T1, PPARγ;RXRα. The series can be described thus: EMSA; labeled mutant probe; 4 fmol labeled DNA, 3.7 pmol PPARγ, 3.9 pmol RXRα in 20 µl; 20 ng poly(dI.dC), 2.5% glycerol, 0.05% NP-40, 5 mM MgCl2; on ice 20 min; 4% native gel, 1x TBE, 4 °C; pH and salt not given.

B1: consensus PPRE (dsDNA)
DNA 1: CAAAACTAGGTCAAAGGTCA
DNA 2: TGACCTTTGACCTAGTTTTG
Take B1: the binding result in the series with PPARγ;RXRα [1] is given as “binds”.

B2: CAT B-PPRE (dsDNA)
DNA 1: TCTCCTGACCTGTGATCCGCCCGCCTCG
DNA 2: CGAGGCGGGCGGATCACAGGTCAGGAGA
Take B2: the binding result with PPARγ;RXRα [2] is reported as “binds”.

B3: CAT B-PPREmt (dsDNA)
DNA 1: TCTCCTGATGTAGGATACTCCTGCCTCG
DNA 2: CGAGGCAGGAGTATCCTACATCAGGAGA
Regarding B3, the binding result with PPARγ;RXRα [3] is “no binding”.

B4: CAT L-PPRE (dsDNA)
DNA 1: TTATGGGGTAAAGGCAGAGGTAATTATT
DNA 2: AATAATTACCTCTGCCTTTACCCCATAA
For the molecule B4, the binding result with PPARγ;RXRα [2] was “binds”.

B5: CAT L-PPREmt (dsDNA)
DNA 1: TTATGCGGTACCCGCTTCGGTAATTATT
DNA 2: AATAATTACCGAAGCGGGTACCGCATAA
Consider B5, for which the binding result with PPARγ;RXRα [3] is given as “no binding”.
